Laboratory results published in patent US7427595 (CORNELL RESEARCH FOUNDATION, dated 2008).

Columns and labels:
[1] = molecular target: T1, partial mouse PEPI (1180 bp of the ORF) in fusion with the activation domain of GAL4 (GAL4-AD), 21 two-hybrid … (yeast; mouse, UniProt P28798 197-589, limits assumed); assay: yeast two-hybrid, growth without histidine and LacZ expression
T1 construct: EPIs G and F absent; also called proepithelin
T1 sequence: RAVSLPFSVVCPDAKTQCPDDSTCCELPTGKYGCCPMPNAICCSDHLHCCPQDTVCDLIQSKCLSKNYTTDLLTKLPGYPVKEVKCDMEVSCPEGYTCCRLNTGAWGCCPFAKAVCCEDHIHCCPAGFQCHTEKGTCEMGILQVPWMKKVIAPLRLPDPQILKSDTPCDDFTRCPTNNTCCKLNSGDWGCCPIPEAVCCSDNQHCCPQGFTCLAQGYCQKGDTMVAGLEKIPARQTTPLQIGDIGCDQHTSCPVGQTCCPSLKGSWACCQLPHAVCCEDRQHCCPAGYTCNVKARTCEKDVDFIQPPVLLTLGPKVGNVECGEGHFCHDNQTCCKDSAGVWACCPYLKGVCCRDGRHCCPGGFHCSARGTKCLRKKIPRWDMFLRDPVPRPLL

[2] = molecular target: T2, PEPI in human bronchoalveolar lavage (BAL) fluid (human, UniProt P28799 18-593); assay: immunoprecipitation of PEPI from BAL fluids of two individuals, anti-SLPI blot
T2 construct: Endogenous protein, immunoprecipitated with antiserum against human PEPI; also called proepithelin
T2 sequence (looked up): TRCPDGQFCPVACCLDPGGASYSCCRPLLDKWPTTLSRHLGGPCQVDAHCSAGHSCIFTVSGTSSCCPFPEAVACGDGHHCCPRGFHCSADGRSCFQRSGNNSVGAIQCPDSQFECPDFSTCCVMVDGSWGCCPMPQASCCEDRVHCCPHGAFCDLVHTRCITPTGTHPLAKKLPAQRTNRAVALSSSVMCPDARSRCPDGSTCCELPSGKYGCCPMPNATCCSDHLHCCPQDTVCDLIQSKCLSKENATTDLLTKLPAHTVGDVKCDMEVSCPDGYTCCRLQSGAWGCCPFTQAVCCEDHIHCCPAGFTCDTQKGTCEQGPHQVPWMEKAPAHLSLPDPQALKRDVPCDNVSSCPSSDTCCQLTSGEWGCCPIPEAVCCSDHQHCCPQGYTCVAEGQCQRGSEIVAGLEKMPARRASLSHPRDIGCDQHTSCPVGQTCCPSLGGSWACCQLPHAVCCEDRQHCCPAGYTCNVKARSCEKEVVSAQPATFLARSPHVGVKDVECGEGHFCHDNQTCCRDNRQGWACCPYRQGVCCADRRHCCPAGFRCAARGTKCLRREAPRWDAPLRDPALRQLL
Description: BAL fluids were collected from healthy adult subjects according to an institutional review board-approved protocol following informed consent. The fluids (45 ml each) were concentrated to 0.5 ml in a Centriprep (Millipore) with 10 kDa cut-off before immunoprecipitation with antiserum against human PEPI and western blotting with antisera against human SLPI or human PEPI.
To test if a SLPI-PEPI complex exists in vivo normal human bronchoalveolar lavage (BAL) fluid samples were examined because both SLPI and PEPI are strongly expressed in airway epithelium (Abe et al., 1991; Daniel et al., 2000). PEPI was immunoprecipitated from the BAL fluids collected from two individuals, and SLPI was detected in the PEPI immunoprecipitates (FIG. 2D). Thus, the SLPI-PEPI complex is physiologic.

[3] = molecular target: T3, recombinant human SLPI (Amgen) (human, UniProt P03973 26-132); assay: reciprocal co-immunoprecipitation of pure recombinant proteins (anti-FLAG M2 and anti-SLPI), western blot
T3 construct: Obtained from Amgen; also called SLPIwt; wild type human SLPI
From the text: PEPI and SLPI were transiently expressed in HEK293 or COS-1 cells. FLAG-tagged PEPI (aa 18-593) was expressed from pCMVI-FLAG and SLPI constructs from pcDNA3.1 (Invitrogen). SLPI constructs included mouse full length (aa 1-131), mouse N-terminal domain (aa 1-80), mouse C-terminal domain (aa 1-25/81-131), and human full-length (aa 1-131). Three days following co-transfection via SuperFect reagent (Qiagen), conditioned media were immunoprecipitated with FLAG M2 antibody (Sigma), separated by reducing SDS-PAGE and western blotted with anti-SLPI antibody (Jin et al., 1997). For in vitro immunoprecipitation assays, recombinant human PEPI or EPI (FLAG-tagged) and SLPI (5 pmol each) were incubated in 10 mM Tris-HCl (pH 7.5), 150 mM NaCl at 37° C. for 30 min before immunoprecipitation with anti-FLAG M2 antibody and western blotting with anti-SLPI antibody or the reverse.
Next, experiments were performed to ascertain which part of PEPI binds to SLPI (for the order of EPIs in PEPI, see FIG. 1A). EPIs G and F were absent in the partial PEPI sequences isolated as SLPI-binding proteins in yeast (FIG. 1A) and thus were dispensable for the interaction. […] When FLAG-tagged recombinant human EPI A or EPI B was incubated with recombinant human SLPI at an equimolar ratio (FIG. 2E) or at a molar ratio of A (or B):SLPI::1:5 (not shown), SLPI was not detected in EPI immunoprecipitates or vice versa. […]

[4] = molecular target: T4, recombinant human SLPI (Amgen)
T4 chain: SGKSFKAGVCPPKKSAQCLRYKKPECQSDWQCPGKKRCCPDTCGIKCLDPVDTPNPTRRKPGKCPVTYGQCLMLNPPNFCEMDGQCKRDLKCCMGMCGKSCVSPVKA

[5] = molecular target: T5, recombinant mouse SLPI (Amgen)
T5 chain: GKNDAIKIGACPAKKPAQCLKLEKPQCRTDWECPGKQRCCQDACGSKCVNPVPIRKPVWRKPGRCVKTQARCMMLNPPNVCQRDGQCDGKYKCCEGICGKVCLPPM

B1: lamin C (other, UniProt P02545-2 67-230, looked up)
chain: EEVVSREVSGIKAAYEAELGDARKTLDSVAKERARLQLELSKVREEFKELKARNTKKEGDLIAAQARLKDLEALLNSKEAALSTALSEKRTLEGELHDLRGQVAKLEAALGEAKKQLQDEMLRRVDAENRLQTMKEELDFQKNIYSEELRETKRRHETRLVEID
notes: Non-specific control in the yeast two-hybrid test
B1: no binding [1].

B2: SLPI in human bronchoalveolar lavage (BAL) fluid (other, UniProt P03973 26-132, looked up)
chain: SGKSFKAGVCPPKKSAQCLRYKKPECQSDWQCPGKKRCCPDTCGIKCLDPVDTPNPTRRKPGKCPVTYGQCLMLNPPNFCEMDGQCKRDLKCCMGMCGKSCVSPVKA
notes: Endogenous protein
B2: binds [2].

B3: recombinant human EPI A (aa 281-337) with an N-terminal FLAG-6xHis tag, from insect cells (other)
chain: DVKCDMEVSCPDGYTCCRLQSGAWGCCPFTQAVCCEDHIHCCPAGFTCDTQKGTCEQ
notes: the construct is stated as aa 281-337; also called epithelin A; not shown: N-terminal FLAG-6xHis tag
B3: no binding [3].

B4: recombinant human EPI B (aa 206-261) with an N-terminal FLAG-6xHis tag, from insect cells (other)
chain: VMCPDARSRCPDGSTCCELPSGKYGCCPMPNATCCSDHLHCCPQDTVCDLIQSKCL
notes: also called epithelin B; not shown: N-terminal FLAG-6xHis tag
B4: no binding [3].

B5: human neutrophil elastase (Sigma) (protein)
chain: IVGGRRARPHAWPFMVSLQLRGGHFCGATLIAPNFVMSAAHCVANVNVRAVRVVLGAHNLSRREPTRQVFAVQRIFENGYDPVNLLNDIVILQLNGSATINANVQVAQLPAQGRRLGNGVQCLAMGWGLLGRNRGIASVLQELNVTVVTSLCRRSNVCTLVRGRQAGVCFGDSGSPLVCNGLIHGIASFVRGGCASGLYPDAFAPVAQFVNWIDSIIQ
For B5, the “cleavage of PEPI by elastase (anti-FLAG western blot)” value [4] was “human and mouse SLPI did block the cleavage of human PEPI by elastase, human SLPI being the more potent” and the “cleavage of PEPI by elastase (anti-FLAG western blot)” value [5] was “human and mouse SLPI did block the cleavage of human PEPI by elastase, human SLPI being the more potent”.
